Assay [1] concerns the target PhiPA3 ChmC (Chimallin C, gp61), full-length (bacteriophage PhiPA3). The experiment in a line: SEC-MALS. (In general: In gel filtration, larger molecules generally elute earlier.)
In assay [2] the target is PhiPA3 ChmC-ΔC (residues 204-251 removed) (bacteriophage PhiPA3). The experiment in a line: SEC-MALS.

In assay [1], “PhiPA3 ChmC (Chimallin C, gp61), full-length (natural protein)” gave a stoichiometry N of 4. In assay [2], “PhiPA3 ChmC-ΔC (residues 204-251 removed) (domain or fragment)” returned a stoichiometry N of 4.

As usually defined, the stoichiometry N is the number of molecules, sites or subunits per partner or assembly.

(Values after PMC11077065.)
